Test results: patent US20230391856A1 (ICAHN SCHOOL OF MEDICINE AT MOUNT SINAI, published 2023)

Columns and labels:
[1] = biological target: SARS-CoV-2 spike receptor binding domain (RBD) (SARS-CoV-2, UniProt P0DTC2 319-541); assay: RBD/ACE2 competition; RBD binding to ACE2 on HEK-293 cells
[2] = biological target: SARS-CoV-2 spike protein (full length, wild type) (SARS-CoV-2, UniProt P0DTC2 14-1273); assay: cell-based or functional assay

B1: 8A1 (antibody, V domains shown)
VH: EVQLQESGGGLVQPGGSLKLSCAASGFTFSSYTMSWVRQTPEKRLEWVAYISNGGGSISYPDTVKGRFTISRDNAKNTLYLHMSSLKSEDTAMYHCAREGLRPGDRDRYYAMDYWGQGTSVTVSS
VL: DIVITQSPALMAAFPGDRVTITCSVSSSVSSSNLHWYRQKSETSPKPWIYGTSTLASGVPVRFSGSGSGTSYSLTISSMEAEDAATYYCQQWSSYPLTFGAGTKLELKR
ACE2 Inhibition (%) [1]: 95% | EC50 (pM) [2]: 96 pM
